Results taken from US7514534 (DYAX, dated 2009).

T1: MMP-26 catalytic domain, tagged with hexa-histidine (human, UniProt Q9NRE1 90-261)
T1 construct: the forward primer adds Met-Ala before it; also called MMP-26 target protein; Matrilysin-2; not shown: Also any N-terminal residues added by the forward primer (Met-Ala according to our card; the primers were not visible to me)
T1 sequence: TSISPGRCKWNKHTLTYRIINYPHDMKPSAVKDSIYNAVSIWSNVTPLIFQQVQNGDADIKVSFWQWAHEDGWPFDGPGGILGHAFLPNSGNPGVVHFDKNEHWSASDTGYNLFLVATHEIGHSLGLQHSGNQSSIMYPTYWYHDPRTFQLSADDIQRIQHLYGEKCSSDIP


Legend:
MMP-3 = target: T2, MMP-3 (UniProt P08254 100-477, limits assumed); test: cross-reactivity ELISA on coated MMP
T2 construct: also called stromelysin-1
T2 sequence (P08254 100-477 limits assumed): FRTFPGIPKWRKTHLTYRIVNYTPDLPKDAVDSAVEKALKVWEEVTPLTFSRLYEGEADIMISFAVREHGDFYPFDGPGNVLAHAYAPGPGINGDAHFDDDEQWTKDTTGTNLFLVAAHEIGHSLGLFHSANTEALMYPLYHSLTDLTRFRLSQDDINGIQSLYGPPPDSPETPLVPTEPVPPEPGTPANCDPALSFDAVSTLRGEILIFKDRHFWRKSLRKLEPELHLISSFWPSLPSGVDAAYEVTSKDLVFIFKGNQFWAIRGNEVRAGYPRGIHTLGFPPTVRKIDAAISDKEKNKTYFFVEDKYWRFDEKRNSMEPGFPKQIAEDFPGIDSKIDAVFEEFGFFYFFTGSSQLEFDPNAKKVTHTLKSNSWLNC
Description: (§1) Twenty-one of the reformatted MMP-26 antibodies were tested for MMP cross reactivity by ELISA analysis. MMP-3, MMP-7, MMP-9, and MMP-12 were coated onto Immulon 2 HB 96-well plates at a concentration of 1 μg/ml for 1 hour at 37° C. The plates were blocked with PBS-T containing 5% (w/v) nonfat dry milk for thirty minutes and subsequently washed with PBS-T. Each antibody was tested for reactivity to all of the above mentioned MMPs at a concentration of 2 μg/ml with an incubation time of 1 hour. Bound antibody was detected with an HRP-conjugated anti-human secondary antibody (Table 3, NT=not tested.).

MMP-9 = target: T3, MMP-9 (UniProt P14780 107-707, limits assumed); test: cross-reactivity ELISA on coated MMP
T3 construct: also called gelatinase
T3 sequence (P14780 107-707 limits assumed): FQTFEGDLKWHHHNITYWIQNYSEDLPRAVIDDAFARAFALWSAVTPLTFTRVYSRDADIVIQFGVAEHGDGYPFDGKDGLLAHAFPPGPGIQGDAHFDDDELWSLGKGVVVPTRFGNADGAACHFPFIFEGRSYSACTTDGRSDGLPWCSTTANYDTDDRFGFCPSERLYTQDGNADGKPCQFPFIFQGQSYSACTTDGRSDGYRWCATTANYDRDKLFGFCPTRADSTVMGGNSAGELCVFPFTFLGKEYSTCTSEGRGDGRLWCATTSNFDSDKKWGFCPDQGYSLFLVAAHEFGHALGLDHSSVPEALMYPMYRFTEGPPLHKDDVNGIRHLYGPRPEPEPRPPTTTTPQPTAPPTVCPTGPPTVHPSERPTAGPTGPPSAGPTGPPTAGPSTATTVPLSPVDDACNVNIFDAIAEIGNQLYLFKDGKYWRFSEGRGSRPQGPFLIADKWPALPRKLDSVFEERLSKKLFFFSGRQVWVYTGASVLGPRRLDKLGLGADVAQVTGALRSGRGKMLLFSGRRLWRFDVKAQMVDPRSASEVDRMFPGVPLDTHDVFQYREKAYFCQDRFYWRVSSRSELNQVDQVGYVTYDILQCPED
Description: as §1

[1] = target: T1, MMP-26 catalytic domain, tagged with …; test: bead-based ELISA, MMP-26 on nickel beads, IgG4 culture supernatant
Description: Reformatted and expressed full-length MMP-26 binding IgG4 antibodies were tested for specificity in a bead-based ELISA. Approximately 1.25 μg of MMP-26 protein was bound to nickel-coated magnetic beads (Novagen) which had been pre-blocked with phosphate buffered saline containing 5% (w/v) nonfat dry milk and 0.05% (v/v) Tween-20. The beads were washed in phosphate buffered saline containing 0.05% (v/v) Tween-20 (PBS-T) and 100 uls of unpurified cell culture supernatant containing transiently produced MMP-26-binding antibodies was added and incubated on a rotator for sixty minutes. The beads were washed with PBS-T and MMP-26-binding antibodies were detected with an HRP-conjugated anti-human secondary antibody. Data is expressed in fold over background where background consists of beads, blocking agent, and culture supernatant containing target antibody (Table 2; in this table, Results shown as fold over background (F>B) where background consists of beads, blocking agent, and culture supernatant).

Binder | binding result (MMP-3) | binding result (MMP-9) | F > B (fold over background) [1] [fold over background]
C11 (antibody, human IgG4, V domains shown, whole human IgG4) VH: EVQLLESGGGLVQPGGSLRLSCAASGFTFSEYPMWWVRQAPGKGLEWVSWIYPSGGNTDYADSVKGRFTISRDNSKNTLYLQMNSLRAEDTAVYYCAIPYCSSSSCPLHWGQGTLVTVSS VL: QSELTQPPSASGSPGQSVTISCTGTSSDVGGYNYVSWYQQHPDKAPKLLIYEVTQRPSGVPDRFSGSRSGNTASLTVSGLQAEDEADYYCSSYAGRNNLYVFGPGTKVTVLG | no binding (tested: 2 µg/ml) | no binding (tested: 2 µg/ml) | 2.6
A07 (antibody, human IgG4, V domains shown, whole human IgG4) VH: EVQLLESGGGLVQPGGSLRLSCAASGFTFSEYNMMWVRQAPGKGLEWVSVISPSGGGTLYADSVKGRFTISRDNSKNTLYLQMNSLRAEDTAVYYCARDLNNSSPPDSNDAFDIWGRGTMVTVSS VL: QSELTQPPSASGSPGQSVTISCTGTSSDVGGYNYVSWYQQHPDKAPKLLIYEVTQRPSGVPDRFSGSRSGNTASLTVSGLQAEDEADYYCSSYAGRNNLYVFGPGTKVTVLG | no binding (tested: 2 µg/ml) | no binding (tested: 2 µg/ml) | 8.38
D03 (antibody, human IgG4, V domains shown, whole human IgG4) VH: EVQLLESGGGLVQPGGSLRLSCAASGFTFSWYRMDWVRQAPGKGLEWVSVIGSSGGMTYYADSVKGRFTISRDNSKNTLYLQMNSLRAEDTAVYYCARRVVGGAGMDVWGQGTTVTVSS VL: DIQMTQSPSAMSASVGDRVTITCRASQVMINYIAWFRQKPGKVPERLIYAASTLQNGVPSRFSGSGSGTDFTLTISRLEPEDFAVYYCQHRITWPPALTFGGGTTVEIKR | no binding (tested: 2 µg/ml) | no binding (tested: 2 µg/ml) | 2.4
D07 (antibody, human IgG4, V domains shown, whole human IgG4) VH: EVQLLESGGGLVQPGGSLRLSCAASGFTFSEYNMFWVRQAPGKGLEWVSYIYSSGGSTDYADSVKGRFTISRDNSKNTLYLQMNSLRAEDTAVYYCARVGIAARPFDPWGQGTLVTVSS VL: QSELTQPASVSGSPGQSITISCTGTNSDIGGYNYVSWYQQHPGKVPKLLIFEVNNRPSGVSSRFSGSKSGDTASLTISGLQPEDEAVYYCGSFTVSVTYVFGTGTKVTVLG | no binding (tested: 2 µg/ml) | no binding (tested: 2 µg/ml) | 3.3
D09 (antibody, V domains shown, whole human IgG4) VH: EVQLLESGGGLVQPGGSLRLSCAASGFTFSHYNMHWVRQAPGKGLEWVSGIVSSGGNTGYADSVKGRFTISRDNSKNTLYLQMNSLRAEDTAVDYCARVVRYSSGWYYWFDPWGQGTLVTVSS VL: not shown | no binding (tested: 2 µg/ml) | no binding (tested: 2 µg/ml) | 4.3
A04 (antibody, human IgG4, V domains shown, whole human IgG4) VH: EVQLLESGGGLVQPGGSLRLSCAASGFTFSEYNMAWVRQAPGKGLEWVSRIGSSGGKTKYADSVKGRFTISRDNSKNTLYLQMNSLRAEDTAVYYCARDEAPDYGDDAEAFDIWGQGTMVTVSS VL: QSALTQPPSASGTPGQRVTISCSGGYSNMGSNYAHWYQQVPGTAPKLLIYNNNQRPSGVPDRFSGSKSGTSASLAISGLRSEDEADYYCAAWDENLSGPVFGTGTKVTVLG | no binding (tested: 2 µg/ml) | no binding (tested: 2 µg/ml) | 3.17
A06 (antibody, human IgG4, V domains shown, whole human IgG4) VH: EVQLLESGGGLVQPGGSLRLSCAASGFTFSPYHMGWVRQAPGKGLEWVSGIYPSGGWTNYADSVKGRFTISRDNSKNTLYLQMNSLRAEDTAVYYCARDGYSSGWFRYWGQGTLVTVSS VL: not shown | no binding (tested: 2 µg/ml) | no binding (tested: 2 µg/ml) | 5.4
D06 (antibody, human IgG4, V domains shown, whole human IgG4) VH: EVQLLESGGGLVQPGGSLRLSCAASGFTFSGYIMEWVRQAPGKGLEWVSVIVSSGGFTMYADSVKGRFTISRDNSKNTLYLQMNSLRAEDTAVYYCARVGDSKGGYYLDYWGQGTLVTVSS VL: DIQMTQSPSSLSASVGDRVTITCRTSQIINTYLNWYQQKPGKAPKLLIYAASTLQGGVPSRFSGSGSGTDFTLTIKSLQPDDFATYYCQQSYTSPRTFGQGTKVEIKR | no binding (tested: 2 µg/ml) | no binding (tested: 2 µg/ml) | 3.5
D01 (antibody, V domains shown, whole human IgG4) VH: EVQLLESGGGLVQPGGSLRLSCAASGFTFSMYLMFWVRQAPGKGLEWVSVISSSGGETSYADSVKGRFTISRDNSKNTLYLQMNSLRAEDTAVYYCARQVSDWTRLYSFDYWGQGTLVTVSS VL: QSELTQPPSASGTPGQRITISCSGSSSNIGSNYVYWYQQFPETAPKLLISRNDQRPSGVPDRFSGSKSGTSASLAISGLRSEDEADYYCASWDDSLSGVVFGGGTKLTVLG | no binding (tested: 2 µg/ml) | no binding (tested: 2 µg/ml) | 3

More lines, now with the values ahead:

binding result (MMP-3) | binding result (MMP-9) | F > B (fold over background) [1] [fold over background] | Binder
no binding (tested: 2 µg/ml) | no binding (tested: 2 µg/ml) | 3.3 | D02 (antibody, human IgG4, V domains shown, whole human IgG4) VH: EVQLLESGGGLVQPGGSLRLSCAASGFTFSWYDMAWVRQAPGKGLEWVSRIVPSGGHTSYADSVKGRFTISRDNFKNTLYLQMNSLRAEDTAVYYCARRASRPEFFDYWGQGALVTVSS VL: DIQMTQSPSFLSASVGDRVTITCRASQGISTYLAWYQQKPGKAPKVLIYTASTLQSGVPSRFSGSGSGTEFTLTISSLQPEDFATYYCQQSYITPPEVTFGPGTKVDIKR
no binding (tested: 2 µg/ml) | no binding (tested: 2 µg/ml) | 2.6 | D04 (antibody, human IgG4, V domains shown, whole human IgG4) VH: EVQLLESGGGLVQPGGSLRLSCAASGFTFSDYQMMWVRQAPGKGLEWVSRISPSGGMTRYADSVKGRFTISRDNSKNTLYLPMNSLRAEDTAVYYCARSGPYYFDYWGQGTLVTVSS VL: DIQMTQSPSSLSASVGDRVAITCRASQSIDTYLNWYQQKPGKAPKLLIYAASKLEDGVPSRFSGSGTGTDFTLTIRSLQPEDFASYFCQQSYSSPGITFGPGTKVEIKR
no binding (tested: 2 µg/ml) | no binding (tested: 2 µg/ml) | 3 | D08 (antibody, human IgG4, V domains shown, whole human IgG4) VH: EVQLLESGGGLVQPGGSLRLSCAASGFTFSFYAMWWVRQAPGKGLEWVSRIYSSGGKTWYADSVKGRFTISRDNSKNTLYLQMNSLRAEDTAVYYCARVGMSTYAFDIWGQGTMVTVSS VL: DIQMTQSPSSLSASVGDRVTITCRASQSISDYLNWYQQKPGKAPDLLIYAASSLQSGVPSRFSGSGSGTDFTLTVSSLQPEDFATYFCQQSYSIPLTFGGGTKVEITR
no binding (tested: 2 µg/ml) | no binding (tested: 2 µg/ml) | 2.48 | A05 (antibody, human IgG4, V domains shown, whole human IgG4) VH: EVQLLESGGGLVQPGGSLRLSCAASGFTFSVYSMNWVRQAPGKGLEWVSYIVPSGGNTPYADSVKGRFTISRDNSKNTLYLQMNSLRAEDTAVYYCARDGAATVDLDYWGQGTLVTVSS VL: DIQMTQSPSSLSLSPGERATLSCRASQSVSSYLAWYQQKPGQAPRLLIYDASNRATGIPARFSGSGSGTDFTLTISSLEPEDFAVYYCQQRSNWPRTFGGGTKVEIKR
